Like-named read-outs stand apart in the source and are kept apart here.
T1: Recombinant Sema4D (1–677) with C-terminal 6xHis-tag (human, UniProt Q92854 22-677)
T1 construct: signal peptide in the construct; human Sema4D, residues 1-677 cloned in pcDNA5 and expressed as a secreted protein; also called human Sema4D; source: Expi293F, purified as the Plexin-B1 constructs (Excel HisTrap, Superdex 200)
T1 sequence (looked up): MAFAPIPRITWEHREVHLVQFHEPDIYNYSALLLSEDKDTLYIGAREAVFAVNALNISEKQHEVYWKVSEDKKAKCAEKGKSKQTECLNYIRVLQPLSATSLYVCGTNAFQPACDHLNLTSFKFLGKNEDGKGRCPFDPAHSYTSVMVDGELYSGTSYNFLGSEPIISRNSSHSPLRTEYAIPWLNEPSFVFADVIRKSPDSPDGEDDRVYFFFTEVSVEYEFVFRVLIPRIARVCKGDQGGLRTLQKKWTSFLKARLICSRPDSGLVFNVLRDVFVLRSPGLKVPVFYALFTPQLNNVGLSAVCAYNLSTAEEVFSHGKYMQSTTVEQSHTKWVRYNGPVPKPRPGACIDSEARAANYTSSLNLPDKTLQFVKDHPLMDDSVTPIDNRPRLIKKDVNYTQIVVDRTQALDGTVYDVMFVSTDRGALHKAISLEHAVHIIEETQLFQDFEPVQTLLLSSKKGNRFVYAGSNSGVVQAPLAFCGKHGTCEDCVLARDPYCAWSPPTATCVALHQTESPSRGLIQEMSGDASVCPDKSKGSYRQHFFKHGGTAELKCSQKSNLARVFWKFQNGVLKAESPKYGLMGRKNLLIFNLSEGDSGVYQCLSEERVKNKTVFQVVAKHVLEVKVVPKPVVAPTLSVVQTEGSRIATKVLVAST

B1: mouse Plexin-B1 (20–535)-6xHis (domain or fragment, UniProt Q8CJH3 20-535, looked up)
chain: LRSPLPAAFTANGTHLQHLARDPTTGTLYVGATNFLFQLSPGLQLEAVVSTGPVNDSRDCLPPVIPDECPQAQPTNNPNQLLLVSPEALVVCGSVHQGICELRSLGQIRQLLLRPERPGDTQYVAANDPAVSTVGLVAQGLVGEPLLFVGRGYTSRGVGGGIPPITTRALRPPDPQAAFSYEETAKLAVGRLSEYSHHFVSAFVRGASAYFLFLRRDLKAPSRAFRAYVSRVCLQDQHYYSYVELPLACQGGRYGLIQAAAVATSKEVARGDVLFAAFSSVAPPTVDWPLSASTGASGTSVLCAFPLDEVDQLANYTRDACYTREGRAENGTKVADIAYDVLSDCAQLPVDTPDAFPCGSDHTPSPMVSCVPLEATPILELPGVQLTAVAVTMEDGHTIAFLGDSQGQLHRVYLGPGRSAAPYSKQSIQPGSPVNRDLTFDGTFEHLYVATQTTLVKVPVAPCAQHLDCDSCLAHRDPYCGWCVLLGRCSRRSECSRDQGPEQWLWSFQPELGCLR
notes: mouse Plexin-B1, sema and PSI1 domains (D1-2); For crystallography the N-linked glycans were trimmed to a single N-acetylglucosamine with EndoH; also called mPlexin-B1; mouse Plexin-B1 domains 1 and 2; source: Expi293F, secreted, purified (Excel HisTrap, Superdex 200)
B2: biotinylated mouse Plexin-B1 (20–535)-Avi-6xHis (domain or fragment, UniProt Q8CJH3 20-535, looked up)
chain: B1 chain
modifications: biotin on the Avi-tag (BirA, in vitro)
notes: the Avi-tag stands between the C terminus of the fragment and the 6xHis-tag; source: Expi293F, secreted, purified as the unmodified version; biotinylated in vitro with BirA
B3: biotinylated mouse Plexin-B1 (20–535)-Avi-6xHis (domain or fragment, UniProt Q8CJH3 20-535, looked up)
chain: B1 chain
modifications: biotin on the Avi-tag (BirA, in vitro)
notes: as for B2
B4: VHH13 (VHH)
VHH: QVQLQESGGGLVQAGGSLRLSCVASGFTFSSYAMGWYRRTPGNQQQLVATVSSSGTTYYGDSVKGRFTISRDNAKKTVYLQMNSLKPEDTAVYYCWRIGYWGQGTQVTVSA
B5: VHH15-6xHis (VHH)
VHH: QVQLQESGGGLVQPGGSLRLSCAASGFRLDYYAIGWFRQAPGKEREGVLCISSSGGSINYADSVKGRFTISRDNAKNTVYLQMNSLKPEDTAVYYCGASSYNTQRAECYGMDYWGKGTQVTVSA
notes: VHH15; not shown: His6, C-terminal, kept
B6: VHH16 (VHH)
VHH: QVQLQESGGDLVQAGGSLRLSCEVSGSSFDIYHWAWYRQVPGKEREWVATAYSAGTTHYADSVKGRFTISRDNAKNTVYLQMNSLIPEDTAVYFCNANIYWGRGTQVTVSA
B7: VHH17 (VHH)
VHH: QVQLQESGGGLVQAGGSLRLSCVAAGIPFSAYAMSWYRQAPGKQRDHIATVSSGGTTYYADSVKGRFTISRDNAKNTVYLQMNSLKPEDTAVYFCNTEFALGNWGQGTQVTVSA
B8: VHH14-6xHis (VHH)
VHH: QVQLQESGGGLVQAGGSLRLSCAASGFTLGYYAIGWFRQAPGKEREEVSCINASGGSTFYEDSVKGRFTISRDNAKNTVFLQMNRLKPEDTAVYYCAAACEVVAVGYWGQGTQVTVSA
notes: VHH14
B9: human Plexin-B1 (20–535) (domain or fragment, UniProt O43157 20-535, looked up)
chain: LQPLPPTAFTPNGTYLQHLARDPTSGTLYLGATNFLFQLSPGLQLEATVSTGPVLDSRDCLPPVMPDECPQAQPTNNPNQLLLVSPGALVVCGSVHQGVCEQRRLGQLEQLLLRPERPGDTQYVAANDPAVSTVGLVAQGLAGEPLLFVGRGYTSRGVGGGIPPITTRALWPPDPQAAFSYEETAKLAVGRLSEYSHHFVSAFARGASAYFLFLRRDLQAQSRAFRAYVSRVCLRDQHYYSYVELPLACEGGRYGLIQAAAVATSREVAHGEVLFAAFSSAAPPTVGRPPSAAAGASGASALCAFPLDEVDRLANRTRDACYTREGRAEDGTEVAYIEYDVNSDCAQLPVDTLDAYPCGSDHTPSPMASRVPLEATPILEWPGIQLTAVAVTMEDGHTIAFLGDSQGQLHRVYLGPGSDGHPYSTQSIQQGSAVSRDLTFDGTFEHLYVMTQSTLLKVPVASCAQHLDCASCLAHRDPYCGWCVLLGRCSRRSECSRGQGPEQWLWSFQPELGCLQ
notes: human Plexin-B1, sema and PSI1 domains; also called hPlexin-B1; source: Expi293F, secreted, purified (Excel HisTrap, Superdex 200)

Key:
VHH15-Fc [1] = molecular target: T2, VHH15-Fc (huarizo); assay: BLI; Octet RED384, 25 °C, 1× Kinetics buffer; purified VHH-Fc captured on Protein G biosensors, mouse Plexin-B1 in solution (VHH14-Fc: 10-3.75 nM, 1800 s association, 7200 s dissociation; VHH15-Fc: 160-10 nM, 600 s, 510 s); global 1:1 fit; details: both partners purified
T2 construct: VHH cloned upstream of the Fc of human IgG1 (vector pHCMVi-Script HuIgG1 Fc); source: Expi293F, transfected; culture supernatant, and purified (HiTrap MabSelect, Superdex 200); not shown: Fc (human IgG1), C-terminal, kept

[2] = molecular target: T1, Recombinant Sema4D (1–677) with …; assay: BLI; competition assay, Octet RED384, 1× Kinetics buffer; biotinylated murine Plexin-B1 on streptavidin biosensors, 10 μg/ml human Sema4D with or without 100 nM VHH-Fc bound beforehand; details: both partners purified
VHH14-Fc [3] = molecular target: T3, VHH14-Fc (huarizo); assay: BLI; first phase of the competition assay: 100 nM VHH-Fc on biotinylated murine Plexin-B1 held on streptavidin biosensors; by the order of the results the VHH-Fcs were still in supernatants; details: one partner purified
T3 construct: VHH cloned upstream of the Fc of human IgG1 (vector pHCMVi-Script HuIgG1 Fc); source: Expi293F, transfected; culture supernatant, and purified (HiTrap MabSelect, Superdex 200); not shown: Fc (human IgG1), C-terminal, kept

VHH15-Fc [4] = molecular target: T2, VHH15-Fc; assay: as above; details: one partner purified
[5] = molecular target: B1
[6] = molecular target: B1; assay: crystal structure; VHH15:mPlexin-B1 complex, EndoH-treated; 8% PEG 8000, 0.1 M sodium citrate pH 5.0, 1% dextran sulphate, 18 °C; details: both partners purified
[7] = molecular target: B1; assay: crystal structure; VHH14:VHH15:mPlexin-B1 ternary complex; 15% PEG 6000, 0.1 M sodium citrate pH 5.5, 3% dextran sulphate, 18 °C; details: both partners purified
VHH14-Fc [8] = molecular target: T3, VHH14-Fc; assay: BLI; supernatants containing VHH-Fcs tested against mouse and human Plexin-B1; details: one partner purified
VHH15-Fc [9] = molecular target: T2, VHH15-Fc; assay: as above; details: one partner purified

Binder: B1
- Kd (VHH15-Fc [1]): 37.5 nM

Binder: B2
- binding result [2]: binds

Binder: B3
- binding result (VHH14-Fc [3]): binds
- binding result (VHH15-Fc [4]): binds

Binder: B4
- binding result [5]: binds

Binder: B5
- binding result [6]: binds

Binder: B6
- binding result [5]: binds

Binder: B7
- binding result [5]: binds

Binder: B8
- binding result [7]: binds

Binder: B9
- binding result (VHH14-Fc [8]): no binding
- binding result (VHH15-Fc [9]): no binding
